B1: yeast NMT (Saccharomyces cerevisiae S288C) (protein)
chain: MSEEDKAKKLENLLKLLQLNNDDTSKFTQEQKKAMKDHKFWRTQPVKDFDEKVVEEGPIDKPKTPEDISDKPLPLLSSFEWCSIDVDNKKQLEDVFVLLNENYVEDRDAGFRFNYTKEFFNWALKSPGWKKDWHIGVRVKETQKLVAFISAIPVTLGVRGKQVPSVEINFLCVHKQLRSKRLTPVLIKEITRRVNKCDIWHALYTAGIVLPAPVSTCRYTHRPLNWKKLYEVDFTGLPDGHTEEDMIAENALPAKTKTAGLRKLKKEDIDQVFELFKRYQSRFELIQIFTKEEFEHNFIGEESLPLDKQVIFSYVVEQPDGKITDFFSFYSLPFTILNNTKYKDLGIGYLYYYATDADFQFKDRFDPKATKALKTRLCELIYDACILAKNANMDVFNALTSQDNTLFLDDLKFGPGDGFLNFYLFNYRAKPITGGLNPDNSNDIKRRSNVGVVML
notes: 11,000-fold purified preparation of yeast NMT; from tissue; host or cells: yeast

Columns and labels:
yeast NMT = target: T1, yeast NMT (Saccharomyces cerevisiae, UniProt P14743); assay: in vitro yeast NMT assay, kinetics of fatty acid analog substrates with iodinated peptide GNAAS[125I]YRR; format: biochemical; settings: Table 2; relative to myristate control 100%; peptide at its Km
T1 construct: 11,000-fold purified preparation of yeast NMT; from tissue; host or cells: yeast
T1 sequence (P14743 1-455): B1 chain
From the text: (§1) Similar results were obtained using an 11,000-fold purified preparation of yeast NMT [Towler et al., Proc. Natl. Acad. Sci. USA 84, 2708-2712 (1987)].
(§2) Other illustrative examples of the oxy- and thio-substituted fatty acid analog substrate compounds of the invention were synthesized in Examples 6 to 14 and tested in Example 15 as substrates for the yeast NMT.
(§3) For these Examples, each analog synthesized is characterized by ^1 H and 13C NMR as well as mass spectroscopy. The analogs are then characterized kinetically as NMT substrates. Briefly, fatty acid analogs are converted to their CoA esters with Pseudomonas CoA ligase and incubated with the iodinated peptide GNAAS[^125 I]YRR and a source of NMT. […] The radiolabelled peptide is then used at concentrations which will lead to 50% enzyme saturation (i.e., at its Km) for the determination of fatty acid analog kinetic characteristics. Representative analogs with sulfur or oxygen in the backbone of the fatty acid chain serve as good substrates for NMT in vitro and will compete for incorporation of ^3 H labelled myri-state into yeast proteins in vivo. In addition, these analogs differ markedly in hydrophobicity from myri-state as measured both by C18 reverse phase HPLC elution profiles and by 2-octanol/water partition coefficients. The analog CH3 O (CH2)11 COOH, for example, partitions into water 20 fold better than myristate. It is believed that these analogs will be incorporated into mammalian acylproteins in vivo and that their incorporation into these proteins will drastically alter protein processing or targeting. It is further believed that the incorporation of fatty acid analogs of both myristate and palmitate into ester linked and phosphatidyl inositol glycan linked acylproteins will also dramatically alter their properties. Since many viral proteins and oncogenes are acylated, these compounds represent a new class of potential antiviral and antineoplastic agents.

[1] = 2-octanol/water partition; format: physicochemical
Experimental: as §3, with “It is further believed that the incorporation of fatty acid analogs of both myristate and palmitate into ester linked and phosphatidyl inositol glycan linked acylproteins will also dramatically alter their properties. Since many viral proteins and oncogenes are acylated, these compounds represent a new class of potential antiviral and antineoplastic agents.” left out

[2] = tested on: known yeast myristoylprotein of Mr 20 kDa; assay: competition for incorporation of [3H]myristate into a yeast myristoylprotein; format: cell-based, Saccharomyces cerevisiae strain BJ405; settings: in words
Experimental: (§4) Saccharomyces cerevisiae strain BJ405 [MATα, trpl, prbl, prcl, pep4-3; Hemmings et al., Proc. Natl. Acad. Sci. USA 78, 435-439 (1981)] (previously referred to as JR153) was grown to mid-log phase (OD660nm=1.0-1.2) in YPD medium (1% yeast extract/2% Bactopeptone/2% Dextrose) at 30° C. in a rotary shaker water bath. Cells were pretreated with Cerulenin at 2 μg/ml for 15 minutes and then incubated for 20-45 minutes with unlabeled myristate, palmitate or fatty acid analog at 100 μM in the presence of either 5 μM [9,10-^3 H(N)]-myristate (22.4 Ci/mmol) or L-[^35 S]methionine (1106 Ci/mmol) at 30 μCi/ml of culture.
Cells were cooled on ice 5 minutes, pelleted at 10,000×g, then broken and extracted by the method of Towler et al., Proc. Natl. Acad. Sci. USA 83, 2812-2816 (1986). Total protein synthesis was assayed by trichloroacetic acid (TCA) precipitation. Proteins were separated by SDS-12% polyacrylamide gel electrophoresis, and [^3 H]fatty acid incorporation into cellular acyl-proteins was assayed by autoradiography followed by laser densitometry.

[3] = tested on: Saccharomyces cerevisiae strain BJ405; assay: toxicity / growth rate of yeast cells; format: cell-based
Experimental: as §4
Furthermore, 100 μM myristate and 100 μM analog produced a similar modest reduction (10-15%) in total protein synthesis (measured by the incorporation of [^35 S]methionine into TCA precipitable protein) compared to control cells which were not exposed to exogenous fatty acid.

[4] = substrate: C#CCOCCCCCCCCCC(=O)O; assay: in vitro yeast NMT assay, kinetics of fatty acid analog substrates with iodinated peptide GNAAS[125I]YRR; format: biochemical; settings: other: Table 2; peptide at its Km
From the text: as §1, §2, §3

[5] = substrate: CCCCCCCCCCCCCC(=O)O; assay: as above; format: biochemical; settings: other: Table 2; peptide at its Km
From the text: as §1, §2, §3

[6] = substrate: CCCCCCCCOCCCCC(=O)O; assay: as above; format: biochemical; settings: other: Table 2; peptide at its Km
From the text: as §1, §2, §3

[7] = substrate: CCCCCCCCSCCCCC(=O)O; assay: as above; format: biochemical; settings: other: Table 2; peptide at its Km
From the text: as §1, §2, §3

[8] = substrate: CCCCOCCCCCCCCCCC(=O)O; assay: as above; format: biochemical; settings: other: Table 2; peptide at its Km
From the text: as §1, §2, §3

[9] = substrate: CCCOCCCCCCCCCC(=O)O; assay: as above; format: biochemical; settings: other: Table 2; peptide at its Km
From the text: as §1, §2, §3

[10] = substrate: CCCSCCCCCCCCCC(=O)O; assay: as above; format: biochemical; settings: other: Table 2; peptide at its Km
From the text: as §1, §2, §3

[11] = substrate: CCOCCCCCCCCCCC(=O)O; assay: as above; format: biochemical; settings: other: Table 2; peptide at its Km
From the text: as §1, §2, §3

[12] = substrate: CCSCCCCCCCCCCC(=O)O; assay: as above; format: biochemical; settings: other: Table 2; peptide at its Km
From the text: as §1, §2, §3

[13] = substrate: COCCCCCCCCCCC(=O)O; assay: as above; format: biochemical; settings: other: Table 2; peptide at its Km
From the text: as §1, §2, §3

[14] = substrate: COCCCCCCCCCCCC(=O)O; assay: as above; format: biochemical; settings: other: Table 2; peptide at its Km
From the text: as §1, §2, §3

Row | Molecule | Acyl CoA Vm (yeast NMT) | partition into water vs myristate [1] [fold] | entry into yeast / competition with labeled myristate for incorporation into yeast protein [2] | growth rates of cells vs 100 μM myristate [3] | toxicity to cells ([3]; 100 μM) | Km [4] [µM] | Km [5] [µM] | Km [6] [µM] | Km [7] [µM] | Km [8] [µM] | Km [9] [µM] | Km [10] [µM] | Km [11] [µM] | Km [12] [µM] | Km [13] [µM] | Km [14] [µM]
1 | COCCCCCCCCCCCC(=O)O [CH3 O(CH2)11 COOH, 12-(Methoxy)dodecanoic acid] | ~ 110% | 20 | can successfully enter yeast and compete with labeled myristate for incorporation into a known myristoylprotein | No difference in the growth rates | does not appear to be toxic to cells |  |  |  |  |  |  |  |  |  |  | 
2 | B1 |  |  |  |  |  | 6.5 | 0.6 | 1.6 | 1.5 | 1 | 6.1 | 1.5 | 1.8 | 1.4 | 6.9 | 2

Reference: patent US5871954A, “Fatty acid analog enzyme substrates” (Washington University, priority 1993, dated 1999)
